From US20040018580A1, “Synthetic substrates for prostasin” (priority 2002, published 2004)
Blank lines part the entries; values can stand above or below the molecule they belong to.

Tests used:
prostasin-mPBP complex = biological target: T1, prostasin-mPBP complex (Homo sapiens, UniProt Q16651); experiment: Inhibition of complex formation between prostasin and mPBP (western blot); type: binding
T1 construct: made in house; mPBP: purified from mouse seminal vesicle fluid
Description: (§1) The procedures were performed according to Chen et al. Briefly, purified recombinant prostasin was incubated with samples from each purification step or the final purified mPBP at 37 degrees C. for 1 hour or for various times as indicated. The binding reaction was stopped by the addition of SDS sample buffer (1×SDS sample buffer=62.5 mM Tris-Hcl at Ph 6.8, 2% (v/v) glycerol, 2% SDS (w/v) and 2% Beta-mercaptoethanol). The reaction mixtures were then boiled for 5 min, and resolved in 10% SDS-polyacrylamide gels. The resolved proteins were then transferred to nitrocellulose membranes, and analyzed with either a prostasin antibody or the mPBP antibody. Signals were detected using an ECL detection procedure with the WestPico reagents (Pierce, Rockford, Ill.) following the manufacturer's protocol. The membrane was then exposed to X-ray film (Midwest Scientific, St. Louis, Mo.) The prostasin antibody was used at 1:2,000 dilution, the mPBP antibody was used at 1:10,000 dilution, and the secondary antibody (goat anti-rabbit IgG, Sigma-Aldrich) was used at 1:10,000 dilution. All antibodies were diluted in 5% non-fat milk in TBS-T (TBS-T=20 mM Tris-Hcl at pH 7.6, 0.14M NaCl and 0.1% Tween-20).
(§2) The purified mPBP was tested for its biochemical activities using the prostasin binding assay. Complex formation between mPBP and purified prostasin was analyzed by western blotting using the mPBP antibody and a prostasin antibody. […] The complex was detected after 30 seconds of incubation and progressed during the incubation time course (60 minutes). […] The complex formation of prostasin and mPBP was used as a control (FIG. 4C, lane 2).
(§3) It has been known that PN-1 can form complexes with various serine proteases, including thrombin. […] We also tested if the complex is pH dependent because prostasins's optimum pH is 9.0. […] We further tested if heparin may have a different effect on the complex formation between prostasin-mPBP versus on that between thrombin-mPBP.

prostasin [1] = biological target: T2, prostasin (Homo sapiens, UniProt Q16651); experiment: Complex formation of recombinant GST-PN-1 with recombinant prostasin (immunoblot); type: binding; design: made in house; conditions: for complex formation of GST-PN-1 fusion protein with prostasin: 0.5 micrograms recombinant prostasin, 37 degrees C., 60 minutes
T2 sequence (Q16651 33-343): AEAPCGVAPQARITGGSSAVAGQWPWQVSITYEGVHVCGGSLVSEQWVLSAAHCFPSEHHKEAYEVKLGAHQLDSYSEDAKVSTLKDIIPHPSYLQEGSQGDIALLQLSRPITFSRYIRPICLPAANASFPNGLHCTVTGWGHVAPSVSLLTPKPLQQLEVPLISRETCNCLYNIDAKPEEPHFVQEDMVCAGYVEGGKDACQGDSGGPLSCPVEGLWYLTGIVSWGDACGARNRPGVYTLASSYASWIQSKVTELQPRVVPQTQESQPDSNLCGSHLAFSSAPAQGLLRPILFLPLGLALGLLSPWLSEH
Description: To establish if mPBP is indeed protease nexin-1, mouse and human protease nexin-1 (PN-1) cDNA were cloned into the pGEX-6P-1 expression vector. The recombinant protein products have the schistosomal glutathione-S-transferase (GST) fused to t he N-terminus of the PN-1. The GST fusion proteins were affinity-purified using glutathione-conjugated agarose-beads. For each type of recombinant protein, cleared supernatant of cell lysate from one liter of culture was incubated with 1 ml of […] glutathione-beads. The beads were eluted with 1 ml of fresh 10 mM glutathione in 50 mM Tris-Hcl, pH 8.0. Twenty microliters of the eluent were incubated with 0.5 micrograms of recombinant prostasin at 37 degrees C. for 60 minutes in the absence or presence of aprotinin. Both the GST-mPN-1 (FIG. 8, lane 1 alone at 64 kDa) and the GST-hPN-1 (FIG. 8, lanes 2 and 5). […] An immunoreactive band at 30 kDa and two other minor immunoreactive bands at 42 kDa and 60 kDa were likely the products of non-specific degradation of the recombinant PN-1, since no protease inhibitors were added in the cell lysate during purification.

thrombin-mPBP complex = biological target: T3, thrombin-mPBP complex (Homo sapiens, UniProt P00734); experiment: Effect of heparin on complex formation between thrombin and mPBP; type: binding; conditions: heparin at 0.25 unit/reaction, FIG. 6B
T3 construct: mPBP: purified from mouse seminal vesicle fluid
From the text: as §3

prostasin [2] = biological target: T2, prostasin; experiment: Enzymatic assay with QAR-AMC substrate (residual activity of prostasin); type: biochemical; design: made in house
Description: Recombinant human prostasin was purified as described in Chen et al. A synthetic substrate, N-t-Boc-Gln-Ala-Arg-7-amido-4-methyl coumarin (QAR-AMC) was purchased from Sigma-Aldrich. The purified mPBP (concentration range 0-0.4 micromolar) was incubated with prostasin (0.8 micromolar) for 30 mins at 37 degrees C. The binding reaction mixture (20 microliters) was then added to 80 microliters of […] Tris-HCL) pH 8.0/0.1% bovine serum albumin containing the QAR-AMC substrate (final concentration: 100 micromolar) in 96-well microtiter plates (Costar 3903, Cambridge, Mass.). The velocity of substrate hydrolysis was measured using a Wallac 1420 Victor mulitlabel counter at wavelength 355 nm and wavelength 460 nm. The residual activity of prostasin (velocity of the inhibited enzyme reaction/velocity of the uninhibited enzyme reaction) as plotted versus the mPBP concentration.
QAR-AMC was used as a substrate for prostasin to test the inhibitory activity of the purified mPBP. Pprostasin (0.8 micromolar) was incubated with 0, 0.05, 0.1, 0.2 or 0.4 micromolar mPBP at 37 degress C. for 30 mins. The reaction mixture was then to the assay buffer containing a final concentration of 100 micromolar QAR-AMC substrate.

[3] = biological target: T4, purified recombinant prostasin (Homo sapiens, UniProt Q16651); experiment: Prostasin-binding assay (complex formation, western blot)
T4 construct: made in house
T4 sequence (Q16651 33-343): as above
Description: as §1, §2

thrombin [4] = biological target: T5, thrombin (Homo sapiens, UniProt P00734); experiment: Complex formation between thrombin and mPBP; type: binding
From the text: as §3

prostasin [5] = biological target: T2, prostasin; experiment: Membrane-overlay zymography of prostasin activity; type: biochemical
thrombin [6] = biological target: T5, thrombin; conditions: cited from earlier work
factor Xa = conditions: cited from earlier work
[7] = binding conditions of increasing pH

Molecule: O=S(=O)(F)Cc1ccccc1 [PMSF]
effect on prostasin-mPBP complex formation (prostasin-mPBP complex; FIG. 4C): inhibited

Molecule: aprotinin [reference compound]
effect on prostasin-mPBP complex formation (prostasin-mPBP complex; FIG. 4C): inhibited
effect on GST-PN-1/prostasin complex formation (prostasin [1]; in the presence of aprotinin, FIG. 8 lanes 3 and 6): inhibited

B1: GST-mPN-1: recombinant mouse PN-1 with glutathione-S-transferase fused to the N-terminus (protein)
chain: SQFNSLSLEELGSNTGIQVFNQIIKSRPHENVVVSPHGIASILGMLQLGADGKTKKQLSTVMRYNVNGVGKVLKKINKAIVSKKNKDIVTVANAVFLRNGFKMEVPFAVRNKDVFQCEVQNVNFQDPASASESINFWVKNETRGMIDNLLSPNLIDGALTRLVLVNAVYFKGLWKSRFQPESTKKRTFVAGDGKSYQVPMLAQLSVFRSGSTRTPNGLWYNFIELPYHGESISMLIALPTESSTPLSAIIPHITTKTIDSWMNTMVPKRMQLVLPKFTAVAQTDLKEPLKALGITEMFEPSKANFTKITRSESLHVSHILQKAKIEVSEDGTKASAATTAILIARSSPPWFIVDRPFLFSIRHNPTGAILFLGQVNKP
modifications: left off: a dimerising Fc or GST
notes: recombinant mouse PN-1 with glutathione-S-transferase fused to the N-terminus
complex formation of GST-PN-1 fusion protein with prostasin (prostasin [1]): form a 100 kDa complex

B3: PN-1: protease nexin-1, a serine protease inhibitor (serpin) (protein)
chain: SQFNSLSLEELGSNTGIQVFNQIIKSRPHENVVVSPHGIASILGMLQLGADGKTKKQLSTVMRYNVNGVGKVLKKINKAIVSKKNKDIVTVANAVFLRNGFKMEVPFAVRNKDVFQCEVQNVNFQDPASASESINFWVKNETRGMIDNLLSPNLIDGALTRLVLVNAVYFKGLWKSRFQPESTKKRTFVAGDGKSYQVPMLAQLSVFRSGSTRTPNGLWYNFIELPYHGESISMLIALPTESSTPLSAIIPHITTKTIDSWMNTMVPKRMQLVLPKFTAVAQTDLKEPLKALGITEMFEPSKANFTKITRSESLHVSHILQKAKIEVSEDGTKASAATTAILIARSSPPWFIVDRPFLFSIRHNPTGAILFLGQVNKP
inhibitory activity of PN-1 to thrombin in the presence of heparin (thrombin [6]): enhanced
inhibitory activity of PN-1 to factor Xa in the presence of heparin (factor Xa): enhanced

B4: GST-hPN-1: recombinant human PN-1 with glutathione-S-transferase fused to the N-terminus (protein)
chain: SHFNPLSLEELGSNTGIQVFNQIVKSRPHDNIVISPHGIASVLGMLQLGADGRTKKQLAMVMRYGVNGVGKILKKINKAIVSKKNKDIVTVANAVFVKNASEIEVPFVTRNKDVFQCEVRNVNFEDPASACDSINAWVKNETRDMIDNLLSPDLIDGVLTRLVLVNAVYFKGLWKSRFQPENTKKRTFVAADGKSYQVPMLAQLSVFRCGSTSAPNDLWYNFIELPYHGESISMLIALPTESSTPLSAIIPHISTKTIDSWMSIMVPKRVQVILPKFTAVAQTDLKEPLKVLGITDMFDSSKANFAKITTGSENLHVSHILQKAKIEVSEDGTKASAATTAILIARSSPPWFIVDRPFLFFIRHNPTGAVLFMGQINKP
modifications: left off: a dimerising Fc or GST
notes: recombinant human PN-1 with glutathione-S-transferase fused to the N-terminus
complex formation of GST-PN-1 fusion protein with prostasin (prostasin [1]): form a 100 kDa complex

Now from value to molecule, other results behind:

effect on prostasin-mPBP complex formation (prostasin-mPBP complex; FIG. 4C): inhibited
effect on prostasin-mPBP complex formation (prostasin-mPBP complex; heparin at 0.25 unit/reaction, FIG. 6B): completely abolished
effect on thrombin-mPBP complex formation (thrombin-mPBP complex): not between thrombin-PMP
Molecule: heparin
effect on prostasin inhibition by mPBP (prostasin [2]; pre-incubation of mPBP and heparin, QAR-AMC substrate): able to prevent prostasin inhibition by mPBP

pH dependence of complex formation of mPBP and prostasin [3, 7]: increased with higher pH
complex formation with prostasin ([3]; purified mPBP, western blot): formed a complex with prostasin
incubation time after which the prostasin-mPBP complex was detected ([3]; time course up to 60 minutes, 37 degrees C.): 30 s
pH dependence of complex formation of mPBP and thrombin (thrombin [4]; [7]): somewhat decreased with increasing pH
inhibition of prostasin's activity by membrane-overlay zymography (prostasin [5]): inhibits prostasin's activity
inhibition of prostasin's activity (prostasin [2]; prostasin 0.8 micromolar with 0-0.4 micromolar mPBP, 37 degrees C., 30 mins, 100 micromolar QAR-AMC): inhibited in a dose dependent manner
B2: mPBP: mouse prostasin-binding protein purified from mouse seminal vesicle fluid, 45 kDa; identified as the serpin protease nexin-1 (protein)
chain: SQFNSLSLEELGSNTGIQVFNQIIKSRPHENVVVSPHGIASILGMLQLGADGKTKKQLSTVMRYNVNGVGKVLKKINKAIVSKKNKDIVTVANAVFLRNGFKMEVPFAVRNKDVFQCEVQNVNFQDPASASESINFWVKNETRGMIDNLLSPNLIDGALTRLVLVNAVYFKGLWKSRFQPESTKKRTFVAGDGKSYQVPMLAQLSVFRSGSTRTPNGLWYNFIELPYHGESISMLIALPTESSTPLSAIIPHITTKTIDSWMNTMVPKRMQLVLPKFTAVAQTDLKEPLKALGITEMFEPSKANFTKITRSESLHVSHILQKAKIEVSEDGTKASAATTAILIARSSPPWFIVDRPFLFSIRHNPTGAILFLGQVNKP
complex formation with thrombin (thrombin [4]; purified mPBP): formed a complex with prostasin as well as thrombin
